What was measured:
MAG + sNogoR344-Fc = molecular target: T1, MAG + sNogoR344-Fc (Rattus norvegicus, UniProt Q99M75, A303T/C287S/C43R/E284G/T53A); assay: ELISA: inhibition of MAG binding to sNogoR344-Fc
T1 construct: amino acid residues 26-344 of rat Nogo receptor-1; made in house; CHO (DG44) is described only for sNogoR310-Fc
T1 sequence (Q99M75 26-344 C43R/T53A/E284G/C287S/A303T): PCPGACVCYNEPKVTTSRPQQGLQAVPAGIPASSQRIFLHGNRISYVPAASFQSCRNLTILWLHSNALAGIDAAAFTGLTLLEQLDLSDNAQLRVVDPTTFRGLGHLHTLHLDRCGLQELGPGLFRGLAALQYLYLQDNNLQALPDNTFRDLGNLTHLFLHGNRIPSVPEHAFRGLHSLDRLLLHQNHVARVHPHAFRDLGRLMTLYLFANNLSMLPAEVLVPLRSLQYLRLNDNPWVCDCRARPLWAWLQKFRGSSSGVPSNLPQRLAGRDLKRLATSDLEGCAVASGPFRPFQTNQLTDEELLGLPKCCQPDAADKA
Method: (§1) 0.5 μg of a soluble Nogo receptor-1 fusion protein comprising amino acid residues 26-344 of rat Nogo receptor-1 and the hinge and Fc region of the rat IgG1 molecule (sNogoR344-Fc) produced as described below was immobilized on […] of protein-A- or wheatgerm agglutinin-conjugated SPA beads (Amersham Pharmacia Biotech) for 2 hours at 25° C. SPA beads coupled with Fc-sNogoR-1, anti-Nogo receptor-1 mAb and 1 μl ^125I-Nogo66 (Amersham, 2000 Ci/mmol, 1 nM) in […] of the HEPES-buffered incubation medium (10 mM HEPES, pH 7.4, 0.1% bovine serum albumin, 0.1% ovalbumin, 2 mM MgCl2, 2 mM CaCl2 and protease inhibitors) was added to each sample well. After 16 hours, radioactivity was measured in quadruplicate samples using a TopCount® (Packard). IC50 values were calculated from a curve-fit analysis (FIG. 3) (PRISM, GraphPad Software, NJ). In some experiments, we also used AP-ligand conjugates (e.g. AP-Nogo66) and detected binding by monitoring alkaline phosphatase activity. We also assayed the ability of the mAbs to block binding of the ligands MAG-Fc and AP-OM-gp to Nogo receptor-1.
(§2) Monoclonal antibodies 7E11, 5B10, 1H2, 3G5 and 2F7 all inhibited binding of Nogo66, MAG and OM-gp to sNogoR344-Fc. The calculated IC50 for Nogo66 for 7E11 and 1H2 were 400 nM and 60 nM, respectively. The data from ELISAs monitoring mAb-mediated inhibition of binding of the three ligands to Nogo receptor-1 are summarized in Table 6.
(§3) The percent displacement is shown at 30 nM antibody and the EC50 for certain mAbs determined from curve-fit analysis as described. “-” indicates no detectable activity and “ND” indicates not determined.
(§4) We also performed ELISA binding assays using the Fab-phage 141)5.

Nogo66 + sNogoR344-Fc = molecular target: T2, Nogo66 + sNogoR344-Fc (Rattus norvegicus, UniProt Q99M75, A303T/C287S/C43R/E284G/T53A); assay: ELISA: inhibition of Nogo66 binding to sNogoR344-Fc
T2 construct: amino acid residues 26-344 of rat Nogo receptor-1; made in house
T2 sequence (Q99M75 26-344 C43R/T53A/E284G/C287S/A303T): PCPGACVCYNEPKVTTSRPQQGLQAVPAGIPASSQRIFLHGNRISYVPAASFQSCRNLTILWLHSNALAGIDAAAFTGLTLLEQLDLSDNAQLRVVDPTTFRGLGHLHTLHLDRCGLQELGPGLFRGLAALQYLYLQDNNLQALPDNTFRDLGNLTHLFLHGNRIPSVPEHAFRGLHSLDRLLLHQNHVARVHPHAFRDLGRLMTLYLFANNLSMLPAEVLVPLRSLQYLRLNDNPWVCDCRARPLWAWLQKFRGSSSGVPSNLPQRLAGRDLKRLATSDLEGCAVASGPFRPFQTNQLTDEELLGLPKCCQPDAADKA
Method: as §1, §2, §3, §4

mouse NgR1 = molecular target: T3, mouse NgR1 (Mus musculus, UniProt Q99PI8); assay: Antibody binding specificity: mouse Nogo receptor-1
T3 sequence (Q99PI8 27-447): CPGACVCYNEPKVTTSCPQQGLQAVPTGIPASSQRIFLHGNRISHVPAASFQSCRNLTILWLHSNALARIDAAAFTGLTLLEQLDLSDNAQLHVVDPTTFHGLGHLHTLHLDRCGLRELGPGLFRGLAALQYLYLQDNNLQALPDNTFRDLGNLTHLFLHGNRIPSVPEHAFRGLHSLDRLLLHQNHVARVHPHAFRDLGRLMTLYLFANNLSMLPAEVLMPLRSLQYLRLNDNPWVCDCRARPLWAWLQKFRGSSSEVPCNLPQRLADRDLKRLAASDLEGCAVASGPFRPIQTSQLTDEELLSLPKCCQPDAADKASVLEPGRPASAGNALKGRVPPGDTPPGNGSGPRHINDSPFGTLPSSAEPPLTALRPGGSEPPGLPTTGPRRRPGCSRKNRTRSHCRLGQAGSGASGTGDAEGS

[1] = molecular target: T4, cells expressing human Nogo receptor-1 (Homo sapiens, UniProt Q9BZR6); assay: Immunohistochemistry on fixed and live COS-7 or 293 cells expressing human Nogo receptor-1; format: cell-based; settings: immunohistochemical staining
T4 construct: expressed in transfected cells; host or cells: COS-7 or 293 cells
T4 sequence (Q9BZR6 27-447): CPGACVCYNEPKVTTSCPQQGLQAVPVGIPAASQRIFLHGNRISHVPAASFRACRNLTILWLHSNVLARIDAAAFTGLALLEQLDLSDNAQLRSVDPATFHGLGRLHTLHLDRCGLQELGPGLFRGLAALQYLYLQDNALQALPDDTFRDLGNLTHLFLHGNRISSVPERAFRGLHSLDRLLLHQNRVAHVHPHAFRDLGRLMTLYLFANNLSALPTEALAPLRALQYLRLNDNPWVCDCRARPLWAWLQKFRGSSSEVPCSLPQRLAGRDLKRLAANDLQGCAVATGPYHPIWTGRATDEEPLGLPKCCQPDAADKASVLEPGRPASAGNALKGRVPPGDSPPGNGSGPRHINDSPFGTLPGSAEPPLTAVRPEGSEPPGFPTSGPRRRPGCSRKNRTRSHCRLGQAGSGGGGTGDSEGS
Method: To further characterize the binding properties of anti-Nogo receptor-1 mAbs produced as described in Example 1, we compared binding to both fixed and live COS-7 or 293 cells expressing rat or human Nogo receptor-1.
Nogo receptor-1 transfected and non-transfected cells were plated in 8-well Lab-Tek™ culture slides, fixed with 4% paraformaldehyde for 15 minutes, blocked with 10% normal goat serum, 0.1% Triton X-100 in PBS for 1 hour. Mab 7E11 was added at 15 μg/ml and 1.5 μg/ml in blocking solution and incubated for 2 hours at room temperature; Alexa®-conjugated secondary antibody anti-mouse (Molecular Probes) was incubated at a 1:300 dilution in blocking solution for 1 hour; DAPI was added at 5 μg/ml to the secondary antibody to label all nuclei.
Transfected and non-transfected cells were plated in 8 well Lab-Tek™ culture slides, blocked with FACS buffer (containing 4% donor horse serum) for 30 minutes at 4° C., incubated with 7E11 at 15 μg/ml and 1.5 μg/ml in FACS buffer for 1 hour at 4° C., rinsed and incubated with secondary antibody anti-mouse-Alexa® (1:300 in FACS buffer) for 30 minutes at 4° C.

B1: 7E11: murine monoclonal anti-Nogo receptor-1 antibody, immunogen rat Nogo receptor-1 residues 110-125, IgG1 kappa, ATCC PTA-4587 (antibody, V domains shown)
VH: VQLQESGAELVMPGASVKMSCKASGYTFTDYWMHWVKQRPGQGLEWIGAIDPSDSYSSYNQNFKGKATLTVDGSSSTAYMQLSSLTSEDSAVYYCARRITEAGAWFAYWGQGTTVT
VL: MKLPVRLLVLMFWIPASSSDVVMTQTPLSLPVSLGDQASISCRSSQSLVHSNGNTYLHWYLQKPGQSPKLLIYKVSNRFSGVPDRFSGSGSGTDFTLKISRVDAEDLGVYFCSQSTHVPFTFGGGTKLEIKRADAAPTVSISHH
modifications: 7E11 heavy chain; 7E11 light chain
notes: murine monoclonal anti-Nogo receptor-1 antibody, immunogen rat Nogo receptor-1 residues 110-125, IgG1 kappa, ATCC PTA-4587
inhibition of binding of MAG to sNogoR344-Fc (MAG + sNogoR344-Fc): inhibited | MAG + sNogoR344-Fc: percent displacement (MAG + sNogoR344-Fc; 30 nM antibody): 30 nM (60%) | EC50 (MAG + sNogoR344-Fc; curve-fit analysis): 500 nM | inhibition of binding of Nogo66 to sNogoR344-Fc (Nogo66 + sNogoR344-Fc): inhibited | EC50 (Nogo66 + sNogoR344-Fc; curve-fit analysis): 1700 nM | binding to mouse Nogo receptor-1 (mouse NgR1): not and poorly | binding to fixed and live cells expressing human Nogo receptor-1 [1]: bound
